This is an account of results in patent US20230212319A1, “NOVEL ANTIGEN BINDING DOMAINS AND SYNTHETIC ANTIGEN RECEPTORS INCORPORATING THE SAME” (University of Southern California, priority 2020, published 2023).

One test relates to L428 cells. The test can be described thus: JNG assay, co-culture with L428 cells. Type of test: cell-based. As for the experimental part: Cellular supernatant is collected and assayed for the induction of cytokines (e.g., IL2).
JNG (Jurkat cells expressing EGFP under an NFAT promoter) were infected with lentiviral vectors encoding different single chain and multi-chain SARs by spinfection in the presence of 8 µg/ml of Polybrene® (Sigma, Catalog no. H9268). The Jurkat-NFAT-GFP cells are engineered in such a way that the IL-2 promoter, which carries NFAT binding sites, is cloned upstream of the GFP gene. These cells have been used to study signaling via TCR and CAR. The different SARs were stably expressed in Jurkat NFAT-GFP cells by lentiviral mediated gene transfer, followed by selection with puromycin or blasticidin. No drug selection was used in case the construct lacked an antibiotic resistance gene. The SAR-expressing Jurkat-NFAT-GFP cells were cocultured with the target cells at E:T ratio of approximately 1:2 for approximately 4 hours to 18 hours. When the interaction between SIRs and their target antigen results in activation of the NFAT pathway, GFP expression is induced. […] GFP expression was monitored by FACS analysis. The Jurkat-NFAT-GFP (parental) cells were used as control. The structure of different constructs can be determined based on their names. […] The sequence of the other constructs in the table can be similarly determined from their names and by referring to the different Tables of this disclosure that provide the names and SEQ ID NO of the different modules. Alternatively, the composition and modular architecture of the different SAR constructs can be determined from their sequences by bioinformatics tools, including using nucleic acid and amino acids homology searches. […] The signs +/-, +, 2+ etc. after the name of the cell lines indicate the relative degree of positivity on the Jurkat-NFAT-GFP assay as measured by the % GFP positive cells after culture of the SAR expressing Jurkat-NFAT-GFP cells with that cell line above the % GFP cells observed in parental Jurkat NFAT-GFP cells serving as controls. […]

For a further test, the system named is DAUDI (CD20+) cells. Type of test: cell-based.
For another test, the system named is RS411 cells. The test is classed as cell-based.
Another test concerns RAJI cells. The test can be described thus: JNG (Jurkat NFAT-GFP) cells expressing SAR: GFP induction on co-culture with RAJI.

B1: 22164 (protein)
chain: MALPVTALLLPLALLLHAARPDIQMTQSPSSLSASVGDRVTITCKASDHINNWLAWYQQKPGQAPKLLIYGATTLETGVPSRFSGSGSGTDYTLTISSLQPEDFATYYCQQSWNTPWTFGQGTKLEIKRLEDLKNVFPPEVAVFEPSEAEISHTQKATLVCLATGFYPDHVELSWWVNGKEVHSGVCTDPQPLKEQPALNDSRYCLSSRLRVSATFWQNPRNHFRCQVQFYGLSENDEWTQDRAKPVTQIVSAEAWGRADCGFTSESYQQGVLSATILYEILLGKATLYAVLVSALVLMAMVKRKDSRGRAKRSGSGATNFSLLKQAGDVEENPGPTSATMDWIWRILFLVGAATGAHSGPEVQLVESGGGLVQAGGSLRLSCAASGSVFSGNVMGWYRQAPGKEREWVAAIASGGSIYYRDSVKGRFTISRDNAKNTVYLQMNSLKPEDTAVYYCNSHPPTLPYWGLGTQVTVSSGSGGGGSGGGGSGGGGSFEQVQLQQPGAELVKPGASVKMSCKASGYAFSSYWINWMKQKPGQGLEWIGQIYPGDGDTNYNGKFKGRATLTADTSSSTAYMQLSSLTSEDSAVYFCARSITTVVGCAMDYWGQGTSVTVSSTRIQNPDPAVYQLRDSKSSDKSVCLFTDFDSQTNVSQSKDSDVYITDKCVLDMRSMDFKSNSAVAWSNKSDFACANAFNNSIIPEDTFFPSPESSCDVKLVEKSFETDTNLNFQNLSVIGFRILLLKVAGFNLLMTLRLWSSRAKRSGSGVKQTLNFDLLKLAGDVESNPGPSRGHMTEYKPTVRLATRDDVPRAVRTLAAAFADYPATRHTVDPDRHIERVTELQELFLTRVGLDIGKVWVADDGAAVAVWTTPESVEAGAVFAEIGPRMAELSGSRLAAQQQMEGLLAPHRPKEPAWFLATVGVSPDHQGKGLGSAVVLPGVEAAERAGVPAFLETSAPRNLPFYERLGFTVTADVEVPEGPRTWCMTRKPGA
Take B1: in the test on L428 cells (co-culture with L428), the “NFAT-GFP ASSAY: L428” value is 3+ (refer to approximately 5%, 10%, 20%, 30%, 40% and 50% GFP positive cells).

B2: SEQ ID NO: 22292: D domain (Afo3) binding a p26 domain, attached to the N-terminus of the vL fragment of a hu-mROO5-1 based SIR (protein)
chain: MALPVTALLLPLALLLHAARPACMGSWFEFYDRLNAIDARLWALGGSEAELAAFEKEIAAFESELQAYKGKGNPEVENLRVHAAAIREWLQAYRHNGTGGGGSGGGGSGGGGSEFDIQMTQSPSSLSASVGDRVTITCKASDHINNWLAWYQQKPGQAPKLLIYGATTLETGVPSRFSGSGSGTDYTLTISSLQPEDFATYYCQQSWNTPWTFGQGTKLEIKRLEDLKNVFPPEVAVFEPSEAEISHTQKATLVCLATGFYPDHVELSWWVNGKEVHSGVCTDPQPLKEQPALNDSRYCLSSRLRVSATFWQNPRNHFRCQVQFYGLSENDEWTQDRAKPVTQIVSAEAWGRADCGFTSESYQQGVLSATILYEILLGKATLYAVLVSALVLMAMVKRKDSRGRAKRSGSGATNFSLLKQAGDVEENPGPTSMDWIWRILFLVGAATGAHSFEQVQLQQPGAELVKPGASVKMSCKASGYAFSSYWINWMKQKPGQGLEWIGQIYPGDGDTNYNGKFKGRATLTADTSSSTAYMQLSSLTSEDSAVYFCARSITTVVGCAMDYWGQGTSVTVSSTRIQNPDPAVYQLRDSKSSDKSVCLFTDFDSQTNVSQSKDSDVYITDKCVLDMRSMDFKSNSAVAWSNKSDFACANAFNNSIIPEDTFFPSPESSCDVKLVEKSFETDTNLNFQNLSVIGFRILLLKVAGFNLLMTLRLWSSRAKRSGSGVKQTLNFDLLKLAGDVESNPGPSRGHMTEYKPTVRLATRDDVPRAVRTLAAAFADYPATRHTVDPDRHIERVTELQELFLTRVGLDIGKVWVADDGAAVAVWTTPESVEAGAVFAEIGPRMAELSGSRLAAQQQMEGLLAPHRPKEPAWFLATVGVSPDHQGKGLGSAVVLPGVEAAERAGVPAFLETSAPRNLPFYERLGFTVTADVEVPEGPRTWCMTRKPGA
As for B2, in the test with L428 cells (L428 cells (CD123+), only in the presence of SAR adaptor bc40-p26-CD123-cg06 (SEQ ID NO: 23120)), the GFP induction entry is “robust induction of GFP”.

B3: 22292 (protein)
chain: MALPVTALLLPLALLLHAARPACMGSWFEFYDRLNAIDARLWALGGSEAELAAFEKEIAAFESELQAYKGKGNPEVENLRVHAAAIREWLQAYRHNGTGGGGSGGGGSGGGGSEFDIQMTQSPSSLSASVGDRVTITCKASDHINNWLAWYQQKPGQAPKLLIYGATTLETGVPSRFSGSGSGTDYTLTISSLQPEDFATYYCQQSWNTPWTFGQGTKLEIKRLEDLKNVFPPEVAVFEPSEAEISHTQKATLVCLATGFYPDHVELSWWVNGKEVHSGVCTDPQPLKEQPALNDSRYCLSSRLRVSATFWQNPRNHFRCQVQFYGLSENDEWTQDRAKPVTQIVSAEAWGRADCGFTSESYQQGVLSATILYEILLGKATLYAVLVSALVLMAMVKRKDSRGRAKRSGSGATNFSLLKQAGDVEENPGPTSMDWIWRILFLVGAATGAHSFEQVQLQQPGAELVKPGASVKMSCKASGYAFSSYWINWMKQKPGQGLEWIGQIYPGDGDTNYNGKFKGRATLTADTSSSTAYMQLSSLTSEDSAVYFCARSITTVVGCAMDYWGQGTSVTVSSTRIQNPDPAVYQLRDSKSSDKSVCLFTDFDSQTNVSQSKDSDVYITDKCVLDMRSMDFKSNSAVAWSNKSDFACANAFNNSIIPEDTFFPSPESSCDVKLVEKSFETDTNLNFQNLSVIGFRILLLKVAGFNLLMTLRLWSSRAKRSGSGVKQTLNFDLLKLAGDVESNPGPSRGHMTEYKPTVRLATRDDVPRAVRTLAAAFADYPATRHTVDPDRHIERVTELQELFLTRVGLDIGKVWVADDGAAVAVWTTPESVEAGAVFAEIGPRMAELSGSRLAAQQQMEGLLAPHRPKEPAWFLATVGVSPDHQGKGLGSAVVLPGVEAAERAGVPAFLETSAPRNLPFYERLGFTVTADVEVPEGPRTWCMTRKPGA
As for B3, the “NFAT-GFP ASSAY: L428 with bc40-p26-CD123-cg06” value with L428 cells (L428 in presence of SAR adaptor bc40-p26-CD123-cg06) is “+3”.

B4: 4090 (protein)
chain: MALPVTALLLPLALLLHAARPDIQMTQSPSSLSASVGDRVTITCKASDHINNWLAWYQQKPGQAPKLLIYGATTLETGVPSRFSGSGSGTDYTLTISSLQPEDFATYYCQQSWNTPWTFGQGTKLEIKRLEDLKNVFPPEVAVFEPSEAEISHTQKATLVCLATGFYPDHVELSWWVNGKEVHSGVCTDPQPLKEQPALNDSRYCLSSRLRVSATFWQNPRNHFRCQVQFYGLSENDEWTQDRAKPVTQIVSAEAWGRADCGFTSESYQQGVLSATILYEILLGKATLYAVLVSALVLMAMVKRKDSRGRAKRSGSGATNFSLLKQAGDVEENPGPTSMDWIWRILFLVGAATGAHSGPQVQLQESGGGLAQAGGSLRLSCAASGRTFSMGWFRQAPGKEREFVAAITYSGGSPYYASSVRGRFTISRDNAKNTVYLQMNSLKPEDTAVYYCAANPTYGSDWNAENWGQGTQVTVSSGSGGGGSGGGGSGGGGSFEQVQLQQPGAELVKPGASVKMSCKASGYAFSSYWINWMKQKPGQGLEWIGQIYPGDGDTNYNGKFKGRATLTADTSSSTAYMQLSSLTSEDSAVYFCARSITTVVGCAMDYWGQGTSVTVSSTRIQNPDPAVYQLRDSKSSDKSVCLFTDFDSQTNVSQSKDSDVYITDKCVLDMRSMDFKSNSAVAWSNKSDFACANAFNNSIIPEDTFFPSPESSCDVKLVEKSFETDTNLNFQNLSVIGFRILLLKVAGFNLLMTLRLWSSRAKRSGSGVKQTLNFDLLKLAGDVESNPGPSRGHMTEYKPTVRLATRDDVPRAVRTLAAAFADYPATRHTVDPDRHIERVTELQELFLTRVGLDIGKVWVADDGAAVAVWTTPESVEAGAVFAEIGPRMAELSGSRLAAQQQMEGLLAPHRPKEPAWFLATVGVSPDHQGKGLGSAVVLPGVEAAERAGVPAFLETSAPRNLPFYERLGFTVTADVEVPEGPRTWCMTRKPGA
modifications: Synthetic Polynucloetide
In the case of B4, in the test with DAUDI (CD20+) cells, the “GFP induction (JNG-GFP induction assay), DAUDI” value was “highly positive”. For the same molecule, in the test on RS411 cells, the “GFP induction (JNG-GFP induction assay), RS;411” value is reported as “highly positive”. Further, in the test with RAJI cells, the “GFP induction (JNG-GFP induction assay), RAJI WT” value is on record as “positive”.
